Laboratory results published in patent publication US20020086390.

Tests used:
[1] = target: GST-Rac1 preloaded with GTPγS, P63000
[2] = target: GST-Cdc42Hs preloaded with GTPγS, P60953
[3] = target: GST-Cdc42Hs preloaded with GDP, P60953
[4] = target: GST-RhoA preloaded with GTPγS, P61586
Chain of GST-RhoA preloaded with GTPγS, P61586 (P61586 whole entry): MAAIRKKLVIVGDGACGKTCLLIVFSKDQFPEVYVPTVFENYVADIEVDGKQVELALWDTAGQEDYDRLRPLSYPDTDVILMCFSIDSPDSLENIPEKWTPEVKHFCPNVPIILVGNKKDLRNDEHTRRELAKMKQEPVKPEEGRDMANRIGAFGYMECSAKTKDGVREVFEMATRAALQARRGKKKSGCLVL

Chain of GST-Cdc42Hs preloaded with GDP, P60953 (P60953 whole entry, looked up): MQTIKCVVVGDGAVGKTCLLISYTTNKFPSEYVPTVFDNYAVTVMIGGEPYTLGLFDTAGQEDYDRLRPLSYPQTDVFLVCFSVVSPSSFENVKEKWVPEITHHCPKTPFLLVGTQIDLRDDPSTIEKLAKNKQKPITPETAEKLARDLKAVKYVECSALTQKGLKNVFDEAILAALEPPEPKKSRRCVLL
Chain of GST-Cdc42Hs preloaded with GTPγS, P60953 (P60953 whole entry, looked up): as above

B1: inactive PAK I holoenzyme (p60) purified from rabbit reticulocytes (protein)
chain: SDNGELEDKPPAPPVRMSSTIFSTGGKDPLSANHSLKPLPSVPEEKKPRNKIISIFSGTEKGSKKKEKERPEISPPSDFEHTIHVGFDAVTGEFTGMPEQWARLLQTSNITKLEQKKNPQAVLDVLKFYDSNTVKQKYLSFTPPEKDGFPSGAPALNTKVSETSAVVTEEDDDDEEAAPPVIAPRPDHTKSIYTRSVIDPIPAPVGDSHVDSGAKSSDKQKKKTKMTDEEIMEKLRTIVSIGDPKKKYTRYEKIGQGASGTVFTATDVALGQEVAIKQINLQKQPKKELIINEILVMKELKNPNIVNFLDSYLVGDELFVVMEYLAGGSLTDVVTETCMDEAQIAAVCRECLQALEFLHANQVIHRDIKSDNVLLGMEGSVKLTDFGFCAQITPEQSKRSTMVGTPYWMAPEVVTRKAYGPKVDIWSLGIMAIEMVEGEPPYLNENPLRALYLIATNGTPELQNPEKLSPIFRDFLNRCLEMDVEKRGSAKELLQHPFLKLAKPLSSLTPLIMAAKEAMKSNR
- autophosphorylation of PAK I (autoradiography, time course) [1]: a slight stimulation of autophosphorylation over the basal level was observed over a 15-min period of incubation
- autophosphorylation of PAK I (autoradiography, time course) [2]: Stimulation of autophosphorylation upon addition of GST-Cdc42Hs was observed within 5 min
- increased autophosphorylation of PAK I [2]: 0.97 mol/mol
- stimulation of the rate of phosphorylation of H4 [2]: 18,261 pmol/min/mg
- activity (phosphorylation of H4) [3]: 2,154 pmol/min/mg
- autophosphorylation and H4 activity relative to Cdc42Hs(GTPγS) [3]: approximately 8-fold lower than those observed with Cdc42Hs(GTPγS)
- stimulation of autophosphorylation [3]: 0.12 mol/mol
- autophosphorylation and activity (phosphorylation of H4) [4]: had no stimulatory effect on either autophosphorylation or activity
- autophosphorylation of PAK I (autoradiography, time course) [4]: GST-RhoA had little effect
